From patent US20020192704A1

Biological target: IRR-Fc fusion protein (extracellular region of mouse insulin receptor-related receptor, 1-920th residues, fused to the H-chain C (constant) region (Fc region) of human IgG1) (mouse; human) (UniProt Q9WTL4)
Assay: SPR (BIACORE 2000), IRR-Fc immobilised on a CM5 chip, IR-Fc flow cell subtracted; about 10 ug of specimen in 200 ul of buffer

Chain of IRR-Fc fusion protein (extracellular region of mouse insulin receptor-related receptor, 1-920th residues, fused to the H-chain C (constant) region (Fc region) of human IgG1) (mouse; human) (Q9WTL4 27-920 limits assumed, form in doubt): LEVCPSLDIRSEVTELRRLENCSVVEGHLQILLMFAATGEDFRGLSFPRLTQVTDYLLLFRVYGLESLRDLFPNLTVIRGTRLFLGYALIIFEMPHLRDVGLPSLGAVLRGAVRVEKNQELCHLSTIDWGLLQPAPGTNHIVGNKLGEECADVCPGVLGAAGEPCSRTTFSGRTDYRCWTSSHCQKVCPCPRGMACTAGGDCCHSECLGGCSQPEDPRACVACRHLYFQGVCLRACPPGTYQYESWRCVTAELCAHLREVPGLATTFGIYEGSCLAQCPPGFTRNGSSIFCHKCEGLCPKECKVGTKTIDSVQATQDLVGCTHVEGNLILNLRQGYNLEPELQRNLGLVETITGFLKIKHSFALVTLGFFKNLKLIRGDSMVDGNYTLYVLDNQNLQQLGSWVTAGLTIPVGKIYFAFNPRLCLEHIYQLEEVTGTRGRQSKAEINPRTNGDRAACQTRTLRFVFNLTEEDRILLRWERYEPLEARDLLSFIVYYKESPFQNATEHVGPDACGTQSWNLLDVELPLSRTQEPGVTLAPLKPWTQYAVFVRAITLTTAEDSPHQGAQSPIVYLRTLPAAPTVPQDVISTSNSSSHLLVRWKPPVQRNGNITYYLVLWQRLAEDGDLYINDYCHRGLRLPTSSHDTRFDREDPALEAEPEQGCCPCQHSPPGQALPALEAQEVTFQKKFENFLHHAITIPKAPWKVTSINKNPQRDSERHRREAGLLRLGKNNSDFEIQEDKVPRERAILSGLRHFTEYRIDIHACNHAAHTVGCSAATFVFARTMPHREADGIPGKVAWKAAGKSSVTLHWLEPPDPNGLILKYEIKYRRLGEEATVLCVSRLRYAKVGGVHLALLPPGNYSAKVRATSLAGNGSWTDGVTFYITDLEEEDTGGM

| binding activity (RU; IRR-Fc binding value minus IR-Fc binding value) | Substance |
| --- | --- |
| 13 RU | Peak 1 of the re-purified IRR ligand from rat C6 glioma cell culture supernatant (rat epithelin/granulin precursor fragments, SEQ ID NOS: 5 and 6) (from UniProt P23785 438-494) |
| 21 RU | Peak 2 of the re-purified IRR ligand from rat C6 glioma cell culture supernatant (rat epithelin/granulin precursor fragment, SEQ ID NO: 4) (from UniProt P23785 439-494) |
